Consider two molecules from publication PMC3937224, “Convergence of Light and ABA Signaling on the ABI5 Promoter” (PLoS Genetics, 2014).

The target in series [1] is T1, GST-ABI5 (Arabidopsis thaliana, UniProt Q9SJN0 1-442).
T1 construct: ABI5 (ABA … 5), Arabidopsis thaliana; Probably made in E. coli like GST and GST-HY5; source: purified
T1 sequence (looked up): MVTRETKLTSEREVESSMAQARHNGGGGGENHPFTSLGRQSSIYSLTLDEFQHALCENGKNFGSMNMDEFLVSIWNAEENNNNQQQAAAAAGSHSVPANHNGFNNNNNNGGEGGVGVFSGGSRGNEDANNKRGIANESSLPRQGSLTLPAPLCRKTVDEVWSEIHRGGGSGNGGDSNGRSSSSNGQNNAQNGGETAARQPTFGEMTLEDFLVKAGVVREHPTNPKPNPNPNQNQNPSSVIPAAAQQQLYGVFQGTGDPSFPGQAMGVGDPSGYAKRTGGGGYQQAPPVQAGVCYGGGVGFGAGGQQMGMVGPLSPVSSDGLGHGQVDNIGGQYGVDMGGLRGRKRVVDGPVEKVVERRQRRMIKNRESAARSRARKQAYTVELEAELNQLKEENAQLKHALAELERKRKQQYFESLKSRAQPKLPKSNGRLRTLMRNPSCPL
The series is described as follows: pull-down; 2 µg 6×His-BBX21 bound to Ni-NTA magnetic beads (2 h, 4°C), incubated overnight at 4°C with 2 µg GST or GST-ABI5; wash with 10 mM Tris pH 8.0, 100 mM NaCl, 0.1% Triton X-100, 5 mM imidazol; Western blot with anti-GST. The following applies: both partners purified. In general terms: A western blot detects proteins with antibodies after separation by electrophoresis.

Series [2] addresses T2, 6xHis-BBX21 (STH2) (Arabidopsis thaliana, UniProt Q9LQZ7 1-331).
T2 sequence: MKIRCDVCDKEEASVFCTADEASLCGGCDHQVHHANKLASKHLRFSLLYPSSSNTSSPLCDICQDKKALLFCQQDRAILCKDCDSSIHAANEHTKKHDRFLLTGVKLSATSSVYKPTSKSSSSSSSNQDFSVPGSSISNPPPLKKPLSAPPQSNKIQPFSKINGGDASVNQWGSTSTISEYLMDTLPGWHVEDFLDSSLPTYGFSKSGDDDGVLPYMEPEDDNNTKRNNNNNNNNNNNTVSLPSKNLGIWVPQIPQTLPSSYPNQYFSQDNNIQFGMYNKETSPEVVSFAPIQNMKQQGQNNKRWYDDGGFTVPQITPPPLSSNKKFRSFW
The series can be described thus: EMSA; 10 mM Tris-HCl (pH not stated), 150 mM KCl, 1 mM DTT, 50 ng/ml poly(dI-dC), 2.5% glycerol, 0.05% NP-40, 100 mM ZnCl2 (so in the source), 0.5 ug/ml BSA, 20 min at room temperature; 6% native PAGE. The following applies: protein: recombinant; tags: 6xHis; label: 5' biotin; blunt (complementary oligonucleotides; second strand not seen in material). For orientation: In EMSA bound probe runs differently from free probe, usually more slowly.

Series [3] deals with T3, GST-HY5 (Arabidopsis thaliana, UniProt O24646 1-168).
T3 sequence: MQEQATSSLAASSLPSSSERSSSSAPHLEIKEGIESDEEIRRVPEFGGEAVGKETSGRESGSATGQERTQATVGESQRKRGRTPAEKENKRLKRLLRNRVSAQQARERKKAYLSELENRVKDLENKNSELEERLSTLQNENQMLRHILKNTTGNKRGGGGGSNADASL
The series is described as follows: EMSA; 0.5 ug protein; no BBX21; 10 mM Tris-HCl (pH not stated), 150 mM KCl, 1 mM DTT, 50 ng/ml poly(dI-dC), 2.5% glycerol, 0.05% NP-40, 100 mM ZnCl2 (so in the source), 0.5 ug/ml BSA, 20 min at room temperature; 6% native PAGE. The following applies: protein: recombinant; tags: N-terminal GST (pGEX-6P-1, printed pEGX-6P-1); chain copies: 2; label: 5' biotin; blunt (complementary oligonucleotides; second strand not seen in material).

B1: 6×His-BBX21 (natural protein, Arabidopsis thaliana, UniProt Q9LQZ7 1-331, looked up)
chain: MKIRCDVCDKEEASVFCTADEASLCGGCDHQVHHANKLASKHLRFSLLYPSSSNTSSPLCDICQDKKALLFCQQDRAILCKDCDSSIHAANEHTKKHDRFLLTGVKLSATSSVYKPTSKSSSSSSSNQDFSVPGSSISNPPPLKKPLSAPPQSNKIQPFSKINGGDASVNQWGSTSTISEYLMDTLPGWHVEDFLDSSLPTYGFSKSGDDDGVLPYMEPEDDNNTKRNNNNNNNNNNNTVSLPSKNLGIWVPQIPQTLPSSYPNQYFSQDNNIQFGMYNKETSPEVVSFAPIQNMKQQGQNNKRWYDDGGFTVPQITPPPLSSNKKFRSFW
notes: BBX21 (STH2), Arabidopsis thaliana; also called 6×His-tagged BBX21; source: Escherichia coli, purified
As to B1, the binding result in series [1] was “binds”.

B2: ABI5 promoter probe (dsDNA)
DNA 1: GATTCCGAACTTCCATTGGGAGTGCACGTGGACTATTCACTGCATAAGG
DNA 2: CCTTATGCAGTGAATAGTCCACGTGCACTCCCAATGGAAGTTCGGAATC
As to B2, the binding result in series [2] is on record as “no binding”; in series [3] it was “binds”.
